From publication PMC9282883 (Nature, 2021)

Experiments:
[1] = target: SARS-CoV-2 RBD WT (for crystallization) (SARS-CoV-2, UniProt P0DTC2); test: crystal structure
[2] = target: Prefusion-stabilized SARS-CoV-2 spike protein for SPR (residues 14–1211, D614G) (SARS-CoV-2 Wuhan-Hu-1 with D614G, D614G); test: SPR
[3] = target: yeast-displayed unmutated SARS-CoV-2 RBD (Wuhan-Hu-1) (SARS-CoV-2, UniProt P0DTC2); test: flow cytometry on cells

B1: S2X259 Fab (Fab, V domains shown)
VH: QVQLVQSGAEVKKPGSSVKVSCKASGGIFNTYTISWVRQAPGQGLEWMGRIILMSGMANYAQKIQGRVTITADKSTSTAYMELTSLRSDDTAVYYCARGFNGNYYGWGDDDAFDIWGQGTLVTVYS
VL: QTVLTQPPSVSGAPGQRVTISCTGSNSNIGAGYDVHWYQQLPGTAPKLLICGNSNRPSGVPDRFSGSKSGTSASLAITGLQAEDEADYYCQSYDSSLSGPNWVFGGGTKLTVL
[1]
  binding result: binds

B2: S2D106 Fab (Fab, V domains shown)
VH: EVQLVQSGAEVKKPGSSVKVSCKASGGPFSSSAISWVRQAPGQGLEWMGGIIPMVGTANYAQKFQGRVTITADESTSTAYMELSSLRSEDTAVYYCARDSRYCSGGSCYSVWFDPWGQGTLVTVSS
VL: not shown
[2]
  Kd: 0.17 nM

B3: S2H14 IgG1 (antibody, V domains shown)
VH: not shown
VL: NFMLTQPHSVSESPGKTVTISCTRSSGSIASNYVQWYQQRPGSSPTTVIYEDNQRPSGVPDRFSGSIDSSSNSASLTISGLKTEDEADYYCQSYDSSNQVFGGGTKLTVL
[3]
  binding result: binds
